Positions count from the first letter of the chain named. Names and notes keep the numbering of the source.
Tests used:
[1] = molecular target: T1, Recombinant Human DLL4 (R&D Systems Cat#1506-D4/CF) (human, UniProt Q9NR61 27-524); assay: ECL multispot (MSD) assay, antigen spotted on plate, Fab at 0.01 µM
T1 construct: Bought recombinant protein; also called delta-like protein 4; rHuman DLL4

[2] = molecular target: T2, rHuman HGF R/c-MET/Fc Chimera, CF (R&D Systems Cat#358-MT/CF) (human, UniProt P08581 25-932); assay: as above
T2 construct: Bought recombinant protein; also called HGF R/Fc; hepatocyte growth factor receptor; Fc part of the bought chimera not given

[3] = molecular target: T3, rHuman CD44/Fc Chimera, CF (R&D Systems Cat#3660-CD) (human, UniProt P16070 21-220); assay: as above
T3 construct: Bought recombinant protein; Fc part of the bought chimera not given

[4] = molecular target: T4, rHuman P-Cadherin/Fc Chimera, CF (R&D Systems Cat#861-PC) (human, UniProt P22223 108-654); assay: as above
T4 construct: Bought recombinant protein; Fc part of the bought chimera not given

[5] = molecular target: T5, rHuman Notch-1/Fc Chimera, CF (R&D Systems Cat#3647-TK) (human, UniProt P46531 19-526); assay: as above
T5 construct: Bought recombinant protein; Fc part of the bought chimera not given

[6] = molecular target: T6, rHuman ErbB2/Fc Chimera, CF (R&D Systems Cat#1129-ER) (human, UniProt P04626 23-652); assay: as above
T6 construct: Bought recombinant protein; also called human epidermal growth factor 2 receptor; Fc part of the bought chimera not given

[7] = molecular target: T7, rHuman IGF-1 sR, CF (R&D Systems Cat#391-GR) (human, UniProt P08069 31-932); assay: as above
T7 construct: Bought recombinant soluble receptor; also called insulin-like growth factor-1 soluble receptor

[8] = molecular target: T8, rHuman EGF R/Fc Chimera, CF (R&D Systems Cat#344-ER) (human, UniProt P00533 25-645); assay: as above
T8 construct: Bought recombinant protein; also called epidermal growth factor receptor; Fc part of the bought chimera not given

[9] = molecular target: T9, rHuman Erythropoietin R/Fc Chimera, CF (R&D Systems Cat#963-ER) (human, UniProt P19235 25-250); assay: as above
T9 construct: Bought recombinant protein; also called EPO R; EPO R/Fc; Fc part of the bought chimera not given
T9 sequence (looked up): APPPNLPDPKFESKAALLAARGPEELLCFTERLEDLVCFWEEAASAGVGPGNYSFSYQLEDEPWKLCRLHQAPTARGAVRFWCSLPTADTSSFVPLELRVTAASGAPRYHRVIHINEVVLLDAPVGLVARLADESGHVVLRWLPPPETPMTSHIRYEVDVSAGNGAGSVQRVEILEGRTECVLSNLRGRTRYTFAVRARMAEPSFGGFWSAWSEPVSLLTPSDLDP

[10] = molecular target: T1, Recombinant Human DLL4 (R&D Systems …); assay: ECL multispot (MSD) assay, antigen spotted on plate, Fab at 0.1 µM
[11] = molecular target: T2, rHuman HGF R/c-MET/Fc Chimera, CF (R&D …); assay: as above
[12] = molecular target: T3, rHuman CD44/Fc Chimera, CF (R&D Systems …); assay: as above
[13] = molecular target: T4, rHuman P-Cadherin/Fc Chimera, CF (R&D …); assay: as above
[14] = molecular target: T5, rHuman Notch-1/Fc Chimera, CF (R&D …); assay: as above
[15] = molecular target: T6, rHuman ErbB2/Fc Chimera, CF (R&D …); assay: as above
[16] = molecular target: T7, rHuman IGF-1 sR, CF (R&D Systems …); assay: as above
[17] = molecular target: T8, rHuman EGF R/Fc Chimera, CF (R&D …); assay: as above
[18] = molecular target: T9, rHuman Erythropoietin R/Fc Chimera, CF …; assay: as above
[19] = molecular target: T10, rHuman HGF R/c-MET/Fc Chimera, CF (R&D Systems Cat#358-MT/CF) (human, UniProt P08581 25-932); assay: ECL multispot (MSD), antigen spotted, 10 nM Fab; blank spot of this row 248
T10 construct: Bought recombinant protein; also called HGF R/Fc; hepatocyte growth factor receptor; Fc part of the bought chimera not given

[20] = molecular target: T11, rHuman EGF R/Fc Chimera, CF (R&D Systems Cat#344-ER) (human, UniProt P00533 25-645); assay: as above
T11 construct: Bought recombinant protein; also called epidermal growth factor receptor; Fc part of the bought chimera not given

[21] = molecular target: T12, rHuman CD44/Fc Chimera, CF (R&D Systems Cat#3660-CD) (human, UniProt P16070 21-220); assay: as above
T12 construct: Bought recombinant protein; Fc part of the bought chimera not given

[22] = molecular target: T13, rHuman P-Cadherin/Fc Chimera, CF (R&D Systems Cat#861-PC) (human, UniProt P22223 108-654); assay: as above
T13 construct: Bought recombinant protein; Fc part of the bought chimera not given

[23] = molecular target: T14, rHuman Erythropoietin R/Fc Chimera, CF (R&D Systems Cat#963-ER) (human, UniProt P19235 25-250); assay: as above
T14 construct: Bought recombinant protein; also called EPO R; EPO R/Fc; Fc part of the bought chimera not given
T14 sequence (looked up): T9 sequence (looked up)

[24] = molecular target: T15, rHuman Notch-1/Fc Chimera, CF (R&D Systems Cat#3647-TK) (human, UniProt P46531 19-526); assay: as above
T15 construct: Bought recombinant protein; Fc part of the bought chimera not given

[25] = molecular target: T16, rHuman IGF-1 sR, (IGF-1 sR), CF (R&D Systems Cat#391-GR) (human, UniProt P08069 31-932); assay: as above
T16 construct: Bought recombinant soluble receptor; also called insulin-like growth factor-1 soluble receptor

[26] = molecular target: T17, rHuman ErbB2/Fc Chimera, CF (R&D Systems Cat#1129-ER) (human, UniProt P04626 23-652); assay: as above
T17 construct: Bought recombinant protein; also called human epidermal growth factor 2 receptor; Fc part of the bought chimera not given

[27] = molecular target: T18, rHuman Erythropoietin R/Fc Chimera, CF (R&D Systems Cat#963-ER) (human, UniProt P19235 25-250); assay: Multispot ECL (MSD) binding screen, antigen spotted on plate; hit = signal/blank >= 4
T18 construct: Bought Fc chimera; also called Epo R/Fc chimera; EPO R/Fc; Fc part of the bought chimera not given
T18 sequence (looked up): T9 sequence (looked up)

B1: Fab VH1-46_IGHD6-6*01_IGHJ1*01 S102A & L6_IGKJ1*01 (Fab, V domains shown)
VH: QVQLVQSGAEVKKPGASVKVSCKASGYTFTSYYMHWVRQAPGQGLEWMGIINPSGGSTSYAQKFQGRVTMTRDTSTSTVYMELSSLRSEDTAVYYCAREEYASSSAEYFQHWGQGTLVTVSS
VL: not shown
notes: Tested as a Fab expressed in E. coli (Plasmid A: CH1, His6 and Flag tags; Plasmid C: kappa CL)
ECL signal/noise ratio [1]: 10 | ECL signal/noise ratio [2]: 0.5 | ECL signal/noise ratio [3]: 0.9 | ECL signal/noise ratio [4]: 0.2 | ECL signal/noise ratio [5]: 0.6 | ECL signal/noise ratio [6]: 1 | ECL signal/noise ratio [7]: 0.5 | ECL signal/noise ratio [8]: 0.8 | ECL signal/noise ratio [9]: 0.8 | ECL signal/noise ratio [10]: 71.6 | ECL signal/noise ratio [11]: 0.5 | ECL signal/noise ratio [12]: 1.3 | ECL signal/noise ratio [13]: 1 | ECL signal/noise ratio [14]: 1.4 | ECL signal/noise ratio [15]: 0.8 | ECL signal/noise ratio [16]: 1.3 | ECL signal/noise ratio [17]: 0.9 | ECL signal/noise ratio [18]: 1.3

B2: Fab VH1-46_IGHD6-6*01_IGHJ1*01 S102A/S103P/S104F G55D & L6_IGKJ1*01 (Fab, V domains shown)
VH: B1 VH with G55D, S103P, S104F
VL: not shown
notes: Tested as Fab (CH1 with His6 and Flag tags, kappa CL); also called APF G55D
ECL signal [19]: 268 | ECL signal [20]: 272 | ECL signal [21]: 173 | ECL signal [22]: 243 | ECL signal [23]: 329 | ECL signal [24]: 302 | ECL signal [25]: 191 | ECL signal [26]: 302

B3: Fab VH1-46_IGHD7-27*01_IGHJ2*01 & A27_IGKJ1*01 (Fab, V domains shown)
VH: QVQLVQSGAEVKKPGASVKVSCKASGYTFTSYYMHWVRQAPGQGLEWMGIINPSGGSTSYAQKFQGRVTMTRDTSTSTVYMELSSLRSEDTAVYYCARANWGYWYFDLWGRGTLVTVSS
VL: not shown
notes: Fab; expressed in E. coli from Plasmid A (CH1, His6 and Flag tags) and Plasmid C (kappa CL)
binding result [27]: binds

Source: US20120316071A1 (published 2012)
